From patent US20150225457A1 come the findings set out here.

The assay addresses mouse CEACAM1 on SEB-responsive T cells (mouse), P31809. In words: cell-based or functional assay.

B1: mouse CEACAM1 N-domain Fc fusion protein, P31809 35-142 (Fc fusion, UniProt P31809 35-142, looked up, not shown: a dimerising Fc or GST)
chain: EVTIEAVPPQVAEDNNVLLLVHNLPLALGAFAWYKGNTTAIDKEIARFVPNSNMNFTGQAYSGREIIYSNGSLLFQMITMKDMGVYTLDMTDENYRRTQATVRFHVHP
As for B1, the TIM3 up-regulation on SEB-responsive T-cells after in vitro re-stimulation (% Mean Fluorescence) is 29.
